According to patent US20260217793A1 (Chugai, published 2026):
Changes are numbered by the printed parent chain. Blank lines part the entries; values can stand above or below the binder they belong to.

Tests used:
[1] = target: T1, FcγRIIb extracellular domain with C-terminal His tag (human, UniProt P31994 43-217); assay: ratio of SPR KDs, FcγRIIaH over FcγRIIb, same variant
T1 sequence (looked up): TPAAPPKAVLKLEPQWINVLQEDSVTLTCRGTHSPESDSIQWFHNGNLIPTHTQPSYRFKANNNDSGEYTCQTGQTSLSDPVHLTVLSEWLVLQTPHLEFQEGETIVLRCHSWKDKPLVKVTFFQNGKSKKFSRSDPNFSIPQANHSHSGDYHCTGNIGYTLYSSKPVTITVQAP

[2] = target: T2, FcγRIIa type R extracellular domain with C-terminal His tag (human, UniProt P12318 34-217); assay: ratio of SPR KDs vs IL6R-B3/IL6R-L
T2 sequence (looked up): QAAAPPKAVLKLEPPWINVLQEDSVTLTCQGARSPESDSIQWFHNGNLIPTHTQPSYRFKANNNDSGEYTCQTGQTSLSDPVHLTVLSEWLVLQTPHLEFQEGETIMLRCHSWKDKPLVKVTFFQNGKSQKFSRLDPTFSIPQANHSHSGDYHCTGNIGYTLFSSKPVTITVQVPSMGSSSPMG

[3] = target: T1, FcγRIIb extracellular domain with …; assay: ratio of SPR KDs vs IL6R-B3/IL6R-L
[4] = target: T1, FcγRIIb extracellular domain with …; assay: ratio of SPR KDs, FcγRIIaR over FcγRIIb, same variant
[5] = target: T3, human FcγRIIb extracellular domain with C-terminal His tag (human, UniProt P31994 43-217); assay: SPR
T3 sequence (looked up): T1 sequence (looked up)

[6] = target: T4, human FcγRIIa type R (Arg131) extracellular domain with C-terminal His tag (human, UniProt P12318 34-217); assay: SPR
T4 sequence (looked up): T2 sequence (looked up)

[7] = target: human FcγRIIIa type V (Val158) extracellular domain with C-terminal His tag (human, UniProt P08637 17-208); assay: SPR
Chain of human FcγRIIIa type V (Val158) extracellular domain with C-terminal His tag (P08637 17-208 F176V): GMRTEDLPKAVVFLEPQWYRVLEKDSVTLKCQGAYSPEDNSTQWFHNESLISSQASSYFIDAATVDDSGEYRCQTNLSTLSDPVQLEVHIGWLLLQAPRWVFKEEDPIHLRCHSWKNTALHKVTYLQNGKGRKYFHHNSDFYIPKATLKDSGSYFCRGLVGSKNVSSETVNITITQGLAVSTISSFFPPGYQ

KD (IIaH)/KD (IIb) [1]: 730
KD (IIaR) of parent polypeptide/KD (IIaR) of altered polypeptide [2]: 28.3
KD (IIb) of parent polypeptide/KD (IIb) of altered polypeptide [3]: 2700
B1: IL6R-BP487/IL6R-L (antibody, human IgG1, kappa)
heavy: QVQLQESGPGLVKPSETLSLTCAVSGHSISHDHAWSWVRQPPGEGLEWIGFISYSGITNYNPSLQGRVTISRDNSKNTLYLQMNSLRAEDTAVYYCARSLARTTAMDYWGEGTLVTVSSASTKGPSVFPLAPSSKSTSGGTAALGCLVKDYFPEPVTVSWNSGALTSGVHTFPAVLQSSGLYSLSSVVTVPSSSLGTQTYICNVNHKPSNTKVDKKVEPKSCDKTHTCPPCPAPDLLGDDSVFLFPPKPKDTLMISRTPEVTCVVIDVAEEDGEVKFNWYVDGVEVHNAKTKPREEQYNSTYRVVSVLTVLHQDWLNGKEYKCKVSNKALPRPIEKTISKAKGQPREPQVYTLPPSRDELTKNQVSLTCLVKGFYPSDIAVEWESNGQPENNYKTTPMVLDSDGSFFLYSKLTVDKSRWQQGNVFSCSVMHEALHNHYTQESLSLSP
light: not shown

KD (IIaH)/KD (IIb) [1]: 870
KD (IIaR) of parent polypeptide/KD (IIaR) of altered polypeptide [2]: 25.7
KD (IIb) of parent polypeptide/KD (IIb) of altered polypeptide [3]: 3100
B2: IL6R-BP489/IL6R-L (antibody, human IgG1, kappa)
heavy: B1 heavy with Y298D
light: not shown

KD (IIaH)/KD (IIb) [1]: 724
KD (IIaR) of parent polypeptide/KD (IIaR) of altered polypeptide [2]: 9.3
KD (IIaR)/KD (IIb) [4]: 38.8
B3: IL6R-BP491/IL6R-L (antibody, human IgG1, kappa)
heavy: B1 heavy with D235E, Y298D, M398P
light: not shown

KD (IIb) of parent polypeptide/KD (IIb) of altered polypeptide [5]: 565
KD (IIaR) of parent polypeptide/KD (IIaR) of altered polypeptide [6]: 4.8
Kd [7]: 21 µM
B4: IL6R-BP565/IL6R-L (antibody, human IgG1, kappa)
heavy: B1 heavy with I266V, Y298D, M398P
light: not shown

KD (IIb) of parent polypeptide/KD (IIb) of altered polypeptide [5]: 196
KD (IIaR) of parent polypeptide/KD (IIaR) of altered polypeptide [6]: 2.4
Kd [7]: 38 µM
B5: IL6R-BP563/IL6R-L (antibody, human IgG1, kappa)
heavy: B1 heavy with I266V, A269S, E274D, Y298D, M398P
light: not shown

KD (IIaH)/KD (IIb) [1]: 821
KD (IIaR) of parent polypeptide/KD (IIaR) of altered polypeptide [2]: 4.3
KD (IIb) of parent polypeptide/KD (IIb) of altered polypeptide [3]: 471
B6: IL6R-BP494/IL6R-L (antibody, human IgG1, kappa)
heavy: B1 heavy with D235E, I266V, Y298D, M398P
light: not shown

KD (IIaH)/KD (IIb) [1]: 564
KD (IIaR) of parent polypeptide/KD (IIaR) of altered polypeptide [2]: 21.7
KD (IIaR)/KD (IIb) [4]: 30.8
B7: IL6R-BP498/IL6R-L (antibody, human IgG1, kappa)
heavy: B1 heavy with M398L
light: not shown

KD (IIb) of parent polypeptide/KD (IIb) of altered polypeptide [5]: 482
KD (IIaR) of parent polypeptide/KD (IIaR) of altered polypeptide [6]: 4.5
Kd [7]: 48 µM
B8: IL6R-BP551/IL6R-L (antibody, human IgG1, kappa)
heavy: B1 heavy with D235E, A269S, E274D, Y298D, M398P
light: not shown

KD (IIb) of parent polypeptide/KD (IIb) of altered polypeptide [5]: 1040
KD (IIaR) of parent polypeptide/KD (IIaR) of altered polypeptide [6]: 13.9
Kd [7]: 23 µM
B9: IL6R-BP536/IL6R-L (antibody, human IgG1, kappa)
heavy: B1 heavy with A269S, Y298D, A329G
light: not shown

KD (IIaR) of parent polypeptide/KD (IIaR) of altered polypeptide [2]: 1.2
KD (IIb) of parent polypeptide/KD (IIb) of altered polypeptide [3]: 131
B10: IL6R-BP492/IL6R-L (antibody, human IgG1, kappa)
heavy: B1 heavy with D235E, D239G, R332A, M398P
light: not shown

KD (IIb) of parent polypeptide/KD (IIb) of altered polypeptide [5]: 541
KD (IIaR) of parent polypeptide/KD (IIaR) of altered polypeptide [6]: 5.2
Kd [7]: 39 µM
B11: IL6R-BP540/IL6R-L (antibody, human IgG1, kappa)
heavy: B1 heavy with D235E, A269S, E274P, Y298D, M398P
light: not shown

KD (IIb) of parent polypeptide/KD (IIb) of altered polypeptide [5]: 587
KD (IIaR) of parent polypeptide/KD (IIaR) of altered polypeptide [6]: 5.4
Kd [7]: 33 µM
B12: IL6R-BP538/IL6R-L (antibody, human IgG1, kappa)
heavy: B1 heavy with D235E, A269S, M398P
light: not shown

KD (IIaH)/KD (IIb) [1]: 201
KD (IIaR) of parent polypeptide/KD (IIaR) of altered polypeptide [2]: 2.3
KD (IIaR)/KD (IIb) [4]: 25.5
B13: IL6R-BP496/IL6R-L (antibody, human IgG1, kappa)
heavy: B1 heavy with Y298D, R332A, M398P
light: not shown
